Results taken from US20130273058A1.
[ ]: non-standard residue; d: D form. The star is where a group is joined. Palmitoyl = CCCCCCCCCCCCCCCC(=O)*

Molecular target: GFP-tagged beta-catenin (UniProt P35222)
Assay: microscale thermophoresis (Monolith NT.115); lysate of HEK293 cells with GFP-beta-catenin mixed with increasing CT-HC-5 in the presence of bicelles; Hill fit

Chain of GFP-tagged beta-catenin (P35222 whole entry): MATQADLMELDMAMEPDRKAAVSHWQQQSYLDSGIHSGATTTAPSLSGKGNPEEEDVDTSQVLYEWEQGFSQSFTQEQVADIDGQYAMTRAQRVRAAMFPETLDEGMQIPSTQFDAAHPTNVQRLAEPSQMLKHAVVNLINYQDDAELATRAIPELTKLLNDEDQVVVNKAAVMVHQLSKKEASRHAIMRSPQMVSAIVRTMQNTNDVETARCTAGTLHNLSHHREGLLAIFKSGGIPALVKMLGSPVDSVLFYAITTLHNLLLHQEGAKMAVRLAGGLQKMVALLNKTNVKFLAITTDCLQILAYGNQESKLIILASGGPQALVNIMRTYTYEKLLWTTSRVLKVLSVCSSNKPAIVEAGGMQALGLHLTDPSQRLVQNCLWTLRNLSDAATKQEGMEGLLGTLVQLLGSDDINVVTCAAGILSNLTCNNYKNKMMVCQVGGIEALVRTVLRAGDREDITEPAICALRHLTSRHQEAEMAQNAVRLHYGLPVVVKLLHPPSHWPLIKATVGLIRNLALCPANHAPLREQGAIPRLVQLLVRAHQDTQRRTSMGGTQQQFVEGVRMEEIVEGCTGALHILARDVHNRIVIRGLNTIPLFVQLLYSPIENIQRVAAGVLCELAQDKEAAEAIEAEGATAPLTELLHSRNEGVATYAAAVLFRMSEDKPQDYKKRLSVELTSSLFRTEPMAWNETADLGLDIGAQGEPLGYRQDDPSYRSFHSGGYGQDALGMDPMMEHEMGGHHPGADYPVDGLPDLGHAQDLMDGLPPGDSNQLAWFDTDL

- Kd: 2700 nM
B1: CT-HC-5 (peptide)
peptide: Palmitoyl-[dT][dR][dF][dL][dS][dS][dT][dL][dE][dV][dS][dL][dR][dK][dK]-NH2
SMILES: CCCCCCCCCCCCCCCC(=O)N[C@@H](C(=O)N[C@H](CCCNC(=N)N)C(=O)N[C@H](Cc1ccccc1)C(=O)N[C@H](CC(C)C)C(=O)N[C@H](CO)C(=O)N[C@H](CO)C(=O)N[C@@H](C(=O)N[C@H](CC(C)C)C(=O)N[C@H](CCC(=O)O)C(=O)N[C@@H](C(=O)N[C@H](CO)C(=O)N[C@H](CC(C)C)C(=O)N[C@H](CCCNC(=N)N)C(=O)N[C@H](CCCCN)C(=O)N[C@H](CCCCN)C(N)=O)C(C)C)[C@H](C)O)[C@H](C)O
